The record followed here is patent US20190127444A1 (NEW YORK UNIVERSITY, published 2019).

Sequences and labels used below:
T1: LukAB toxoid variant (LukA E323A), recombinant polyhistidine-tagged (S. aureus, UniProt Q2FFA2 28-351; P21224 30-338)
T1 sequence 1: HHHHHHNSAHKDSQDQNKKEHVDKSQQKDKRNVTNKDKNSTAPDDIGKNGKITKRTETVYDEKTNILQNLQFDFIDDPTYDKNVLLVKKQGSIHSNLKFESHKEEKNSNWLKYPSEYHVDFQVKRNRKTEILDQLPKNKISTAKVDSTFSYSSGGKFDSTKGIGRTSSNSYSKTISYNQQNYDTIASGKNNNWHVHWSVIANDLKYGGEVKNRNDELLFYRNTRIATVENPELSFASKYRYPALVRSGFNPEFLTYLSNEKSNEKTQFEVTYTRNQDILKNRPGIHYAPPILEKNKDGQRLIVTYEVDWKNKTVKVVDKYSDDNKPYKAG
T1 sequence 2: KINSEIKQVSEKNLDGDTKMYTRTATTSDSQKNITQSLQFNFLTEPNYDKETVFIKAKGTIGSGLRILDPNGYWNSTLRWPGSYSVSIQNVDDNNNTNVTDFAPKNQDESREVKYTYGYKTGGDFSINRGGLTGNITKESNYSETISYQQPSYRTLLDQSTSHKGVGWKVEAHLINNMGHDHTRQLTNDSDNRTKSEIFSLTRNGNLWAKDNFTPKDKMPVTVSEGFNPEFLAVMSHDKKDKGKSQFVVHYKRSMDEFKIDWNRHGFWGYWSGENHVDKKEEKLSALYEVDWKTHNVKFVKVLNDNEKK

B1: 0×1 linker variant of Construct 11 (bispecific antibody)
heavy: EVQLVETGGGLVKPGGSLRLSCSASRFSFRDYYMTWIRQAPGKGPEWVSHISGSGSTIYYADSVRGRFTISRDNAKSSLYLQMDSLQADDTAVYYCARGGRATSYYWVHWGPGTLVTVSSASTKGPSVFPLAPSSKSTSGGTAALGCLVKDYFPEPVTVSWNSGALTSGVHTFPAVLQSSGLYSLSSVVTVPSSSLGTQTYICNVNHKPSNTKVDKKVEPKSCDKTHTCPPCPAPPVAGPDVFLFPPKPKDTLMISRTPEVTCVVVDVSHEDPEVKFNWYVDGVEVHNAKTKPREEQYNSTYRVVSVLTVLHQDWLNGKEYKCKVSNAALPAPIAKTISKAKGQPREPQVYTLPPSRDELTKNQVSLTCLVKGFYPSDIAVEWESNGQPENNYKTTPPVLDSDGSFFLYSKLTVDKSRWQQGNVFSCSVMHEALHNRFTQKSLSLSPGKMLPAPKNLVVSRVTEDSARLSWTAPDAAFDSFHIEYAEPWVWGEAIVLTVPGSERSYDLTGLKPGTEYVVFIGGVKGGHNSTPLSAIFTTGGGGSMLPAPKNLVVSRVTEDSARLSWTAPDAAFDSFWITYEEKFYRGEAIVLTVPGSERSYDLTGLKPGTEYKVWIVGVKGGQGSWPLSAIFTT
light: EIVLTQSPATLSLSPGERATLSCRASQSVSGYLGWYQQKPGQAPRLLIYGASSRATGIPDRFSGSGSGTDFTLTISRLEPEDFAVYYCQQYGSSPLTFGGGTKLEIKRTVAAPSVFIFPPSDEQLKSGTASVVCLLNNFYPREAKVQWKVDNALQSGNSQESVTEQDSKDSTYSLSSTLTLSKADYEKHKVYACEVTHQGLSSPVTKSFNRGEC
B2: 3×2 linker variant of Construct 11 (bispecific antibody)
heavy: EVQLVETGGGLVKPGGSLRLSCSASRFSFRDYYMTWIRQAPGKGPEWVSHISGSGSTIYYADSVRGRFTISRDNAKSSLYLQMDSLQADDTAVYYCARGGRATSYYWVHWGPGTLVTVSSASTKGPSVFPLAPSSKSTSGGTAALGCLVKDYFPEPVTVSWNSGALTSGVHTFPAVLQSSGLYSLSSVVTVPSSSLGTQTYICNVNHKPSNTKVDKKVEPKSCDKTHTCPPCPAPPVAGPDVFLFPPKPKDTLMISRTPEVTCVVVDVSHEDPEVKFNWYVDGVEVHNAKTKPREEQYNSTYRVVSVLTVLHQDWLNGKEYKCKVSNAALPAPIAKTISKAKGQPREPQVYTLPPSRDELTKNQVSLTCLVKGFYPSDIAVEWESNGQPENNYKTTPPVLDSDGSFFLYSKLTVDKSRWQQGNVFSCSVMHEALHNRFTQKSLSLSPGKGGGGSGGGGSGGGGSMLPAPKNLVVSRVTEDSARLSWTAPDAAFDSFHIEYAEPWVWGEAIVLTVPGSERSYDLTGLKPGTEYVVFIGGVKGGHNSTPLSAIFTTGGGGSGGGGSMLPAPKNLVVSRVTEDSARLSWTAPDAAFDSFWITYEEKFYRGEAIVLTVPGSERSYDLTGLKPGTEYKVWIVGVKGGQGSWPLSAIFTT
light: B1 light
B3: 0×3 linker variant of Construct 11 (bispecific antibody)
heavy: EVQLVETGGGLVKPGGSLRLSCSASRFSFRDYYMTWIRQAPGKGPEWVSHISGSGSTIYYADSVRGRFTISRDNAKSSLYLQMDSLQADDTAVYYCARGGRATSYYWVHWGPGTLVTVSSASTKGPSVFPLAPSSKSTSGGTAALGCLVKDYFPEPVTVSWNSGALTSGVHTFPAVLQSSGLYSLSSVVTVPSSSLGTQTYICNVNHKPSNTKVDKKVEPKSCDKTHTCPPCPAPPVAGPDVFLFPPKPKDTLMISRTPEVTCVVVDVSHEDPEVKFNWYVDGVEVHNAKTKPREEQYNSTYRVVSVLTVLHQDWLNGKEYKCKVSNAALPAPIAKTISKAKGQPREPQVYTLPPSRDELTKNQVSLTCLVKGFYPSDIAVEWESNGQPENNYKTTPPVLDSDGSFFLYSKLTVDKSRWQQGNVFSCSVMHEALHNRFTQKSLSLSPGKMLPAPKNLVVSRVTEDSARLSWTAPDAAFDSFHIEYAEPWVWGEAIVLTVPGSERSYDLTGLKPGTEYVVFIGGVKGGHNSTPLSAIFTTGGGGSGGGGSGGGGSMLPAPKNLVVSRVTEDSARLSWTAPDAAFDSFWITYEEKFYRGEAIVLTVPGSERSYDLTGLKPGTEYKVWIVGVKGGQGSWPLSAIFTT
light: B1 light
B4: 0×2 linker variant of Construct 11 (bispecific antibody)
heavy: EVQLVETGGGLVKPGGSLRLSCSASRFSFRDYYMTWIRQAPGKGPEWVSHISGSGSTIYYADSVRGRFTISRDNAKSSLYLQMDSLQADDTAVYYCARGGRATSYYWVHWGPGTLVTVSSASTKGPSVFPLAPSSKSTSGGTAALGCLVKDYFPEPVTVSWNSGALTSGVHTFPAVLQSSGLYSLSSVVTVPSSSLGTQTYICNVNHKPSNTKVDKKVEPKSCDKTHTCPPCPAPPVAGPDVFLFPPKPKDTLMISRTPEVTCVVVDVSHEDPEVKFNWYVDGVEVHNAKTKPREEQYNSTYRVVSVLTVLHQDWLNGKEYKCKVSNAALPAPIAKTISKAKGQPREPQVYTLPPSRDELTKNQVSLTCLVKGFYPSDIAVEWESNGQPENNYKTTPPVLDSDGSFFLYSKLTVDKSRWQQGNVFSCSVMHEALHNRFTQKSLSLSPGKMLPAPKNLVVSRVTEDSARLSWTAPDAAFDSFHIEYAEPWVWGEAIVLTVPGSERSYDLTGLKPGTEYVVFIGGVKGGHNSTPLSAIFTTGGGGSGGGGSMLPAPKNLVVSRVTEDSARLSWTAPDAAFDSFWITYEEKFYRGEAIVLTVPGSERSYDLTGLKPGTEYKVWIVGVKGGQGSWPLSAIFTT
light: B1 light
B5: 1×4 linker variant of Construct 11 (bispecific antibody)
heavy: EVQLVETGGGLVKPGGSLRLSCSASRFSFRDYYMTWIRQAPGKGPEWVSHISGSGSTIYYADSVRGRFTISRDNAKSSLYLQMDSLQADDTAVYYCARGGRATSYYWVHWGPGTLVTVSSASTKGPSVFPLAPSSKSTSGGTAALGCLVKDYFPEPVTVSWNSGALTSGVHTFPAVLQSSGLYSLSSVVTVPSSSLGTQTYICNVNHKPSNTKVDKKVEPKSCDKTHTCPPCPAPPVAGPDVFLFPPKPKDTLMISRTPEVTCVVVDVSHEDPEVKFNWYVDGVEVHNAKTKPREEQYNSTYRVVSVLTVLHQDWLNGKEYKCKVSNAALPAPIAKTISKAKGQPREPQVYTLPPSRDELTKNQVSLTCLVKGFYPSDIAVEWESNGQPENNYKTTPPVLDSDGSFFLYSKLTVDKSRWQQGNVFSCSVMHEALHNRFTQKSLSLSPGKGGGGSMLPAPKNLVVSRVTEDSARLSWTAPDAAFDSFHIEYAEPWVWGEAIVLTVPGSERSYDLTGLKPGTEYVVFIGGVKGGHNSTPLSAIFTTGGGGSGGGGSGGGGSGGGGSMLPAPKNLVVSRVTEDSARLSWTAPDAAFDSFWITYEEKFYRGEAIVLTVPGSERSYDLTGLKPGTEYKVWIVGVKGGQGSWPLSAIFTT
light: B1 light
B6: 0×4 linker variant of Construct 11 (bispecific antibody)
heavy: EVQLVETGGGLVKPGGSLRLSCSASRFSFRDYYMTWIRQAPGKGPEWVSHISGSGSTIYYADSVRGRFTISRDNAKSSLYLQMDSLQADDTAVYYCARGGRATSYYWVHWGPGTLVTVSSASTKGPSVFPLAPSSKSTSGGTAALGCLVKDYFPEPVTVSWNSGALTSGVHTFPAVLQSSGLYSLSSVVTVPSSSLGTQTYICNVNHKPSNTKVDKKVEPKSCDKTHTCPPCPAPPVAGPDVFLFPPKPKDTLMISRTPEVTCVVVDVSHEDPEVKFNWYVDGVEVHNAKTKPREEQYNSTYRVVSVLTVLHQDWLNGKEYKCKVSNAALPAPIAKTISKAKGQPREPQVYTLPPSRDELTKNQVSLTCLVKGFYPSDIAVEWESNGQPENNYKTTPPVLDSDGSFFLYSKLTVDKSRWQQGNVFSCSVMHEALHNRFTQKSLSLSPGKMLPAPKNLVVSRVTEDSARLSWTAPDAAFDSFHIEYAEPWVWGEAIVLTVPGSERSYDLTGLKPGTEYVVFIGGVKGGHNSTPLSAIFTTGGGGSGGGGSGGGGSGGGGSMLPAPKNLVVSRVTEDSARLSWTAPDAAFDSFWITYEEKFYRGEAIVLTVPGSERSYDLTGLKPGTEYKVWIVGVKGGQGSWPLSAIFTT
light: B1 light

The assay deals with T1, LukAB toxoid variant (LukA E323A), …. Put plainly: ELISA, biotinylated toxin on streptavidin plate. In general terms: An ELISA detects its analyte on a solid surface through an enzyme-linked reagent.
Consider B1, for which the binding result is on record as “binds”.

For the molecule B2, the binding result was “binds”.

Consider B3, for which the binding result is “binds”. The value for B4 was “binds”. The value for B5 was “binds”. The value for B6 was “binds”.
